Reference: paper PMC11277083 (International Journal of Molecular Sciences, 2024)

Target: ACE2 protein (recombinant human, CUSABIO no. CSB-MP866317HU) (human, UniProt Q9BYF1 18-740)
Assay: SPR; […] (50 ug/mL in sodium acetate pH 4.0, 10 uL/min, 420 s); […]; Biacore T200; […]
Details: both partners purified

Chain of ACE2 protein (recombinant human, CUSABIO no. CSB-MP866317HU) (Q9BYF1 18-740): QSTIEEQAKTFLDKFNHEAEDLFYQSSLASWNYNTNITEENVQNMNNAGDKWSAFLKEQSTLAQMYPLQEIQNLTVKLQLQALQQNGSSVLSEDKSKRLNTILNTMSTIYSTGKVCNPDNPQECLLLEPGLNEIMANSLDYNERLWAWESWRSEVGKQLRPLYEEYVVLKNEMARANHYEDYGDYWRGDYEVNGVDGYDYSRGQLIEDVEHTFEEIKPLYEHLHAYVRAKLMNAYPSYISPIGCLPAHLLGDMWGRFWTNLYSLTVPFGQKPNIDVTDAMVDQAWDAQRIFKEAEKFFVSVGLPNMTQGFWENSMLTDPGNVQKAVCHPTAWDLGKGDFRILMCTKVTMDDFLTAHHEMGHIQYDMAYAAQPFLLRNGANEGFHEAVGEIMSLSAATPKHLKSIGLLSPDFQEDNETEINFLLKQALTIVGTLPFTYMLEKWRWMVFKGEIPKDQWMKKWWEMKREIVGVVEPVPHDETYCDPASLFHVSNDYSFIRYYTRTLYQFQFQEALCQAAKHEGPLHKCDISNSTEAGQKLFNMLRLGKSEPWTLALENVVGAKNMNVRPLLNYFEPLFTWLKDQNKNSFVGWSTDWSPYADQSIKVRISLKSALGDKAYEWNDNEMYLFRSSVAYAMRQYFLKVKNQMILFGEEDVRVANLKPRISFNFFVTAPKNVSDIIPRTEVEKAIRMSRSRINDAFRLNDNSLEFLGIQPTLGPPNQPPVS

Binder: KKCHFWPFPW [KKCH peptide]
- Kd: 624 nM
- koff: 0.0958 s⁻¹
- kon: 154000 M⁻¹ s⁻¹
